Assay results taken from US20250034268A1 (Innovent, published 2025).
Numbering of substitutions follows the chain as printed.

Legend:
[1] = biological target: T1, human BCMA expressed on the cell surface (human, UniProt Q02223 1-184); assay: flow cytometry, 10 nM antibody on human BCMA CHO-S cells
T1 construct: The same molecule is used here for hBCMA-CHO GS cells and for the endogenous BCMA of the myeloma lines; also called Human BCMA CHO-S cell; H929
T1 sequence: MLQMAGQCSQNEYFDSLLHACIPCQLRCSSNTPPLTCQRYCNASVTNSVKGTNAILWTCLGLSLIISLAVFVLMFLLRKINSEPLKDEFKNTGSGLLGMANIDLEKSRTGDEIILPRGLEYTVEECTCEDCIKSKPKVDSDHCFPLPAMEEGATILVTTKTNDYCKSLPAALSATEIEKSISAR

[2] = biological target: T2, Cynomolgus monkey BCMA-Fc (cynomolgus monkey, UniProt A0A2K5UD97 1-53); assay: BLI (ForteBio Octet), IgG captured on AHC probe, antigen in solution, avid
T2 construct: also called BCMA from cynomolgus monkey (mobile phase); not shown: Fc part
T2 sequence (A0A2K5UD97 entry or part of it): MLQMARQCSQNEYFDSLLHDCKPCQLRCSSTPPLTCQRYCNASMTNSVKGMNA

Mouse BCMA-Fc = biological target: T3, Mouse BCMA-Fc (mouse, UniProt O88472 1-49, limits assumed); assay: as above
T3 construct: also called BCMA from mouse (mobile phase); not shown: Fc part

[3] = biological target: T1, human BCMA expressed on the cell surface; assay: flow cytometry, 10 nM antibody on human BCMA CHO-S cells against CHO-S cells
Human BCMA-IHM = biological target: T4, Human BCMA-IHM (human, UniProt Q02223 1-54); assay: BLI (ForteBio Octet), IgG captured on AHC probe, antigen in solution, monovalent
T4 construct: also called BCMA from human (mobile phase); not shown: 'IHM' is not explained; it may be a tag
T4 sequence (looked up): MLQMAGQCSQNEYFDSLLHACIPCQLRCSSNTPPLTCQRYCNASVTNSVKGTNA

Human BCMA monomer = biological target: T5, Human BCMA monomer (human, UniProt Q02223 1-54, limits assumed); assay: as above
T5 construct: also called BCMA from human (mobile phase)
T5 sequence (looked up): T4 sequence (looked up)

[4] = biological target: T1, human BCMA expressed on the cell surface; assay: flow cytometry, 10 nM antibody on H929 cells
[5] = biological target: T6, recombinant cynomolgus monkey BCMA protein (cynomolgus monkey, UniProt A0A2K5UD97 1-53); assay: SPR (Biacore T200), antibody captured by anti-human Fc on CM5 chip, antigen 1.25-40 nM, 1:1 model
T6 construct: The construct is not described

[6] = biological target: T7, recombinant human BCMA protein (human, UniProt Q02223 1-54, limits assumed); assay: as above
T7 construct: The construct is not described
T7 sequence (looked up): T4 sequence (looked up)

[7] = biological target: T8, recombinant rat BCMA protein (rat); assay: as above
T8 construct: The construct is not described

[8] = biological target: T9, recombinant mouse BCMA protein (mouse, UniProt O88472 1-49, limits assumed); assay: as above
T9 construct: The construct is not described
T9 chain (looked up): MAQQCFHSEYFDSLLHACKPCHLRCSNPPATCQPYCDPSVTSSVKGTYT

[9] = biological target: T1, human BCMA expressed on the cell surface; assay: flow cytometry on MM.1s cells
[10] = biological target: T10, mouse BCMA expressed on CHO GS cells (mouse, UniProt O88472 1-185); assay: flow cytometry on mBCMA-CHO-GS cells
T10 construct: whole, on cells; also called mBCMA-CHO GS; mBCMA-CHO-GS
T10 sequence (looked up): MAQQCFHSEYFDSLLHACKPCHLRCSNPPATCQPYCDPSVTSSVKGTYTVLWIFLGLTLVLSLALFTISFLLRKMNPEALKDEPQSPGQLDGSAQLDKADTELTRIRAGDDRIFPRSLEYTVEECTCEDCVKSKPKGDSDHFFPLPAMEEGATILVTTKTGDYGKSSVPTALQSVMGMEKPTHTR

[11] = biological target: T1, human BCMA expressed on the cell surface; assay: flow cytometry on H929 cells
[12] = biological target: T1, human BCMA expressed on the cell surface; assay: flow cytometry on RPMI8226 cells
[13] = biological target: T11, cynomolgus monkey BCMA expressed on CHO GS cells (cynomolgus monkey, UniProt A0A2K5UD97 1-183); assay: flow cytometry on cynoBCMA-CHO-GS cells
T11 construct: whole, on cells; also called cynoBCMA-CHO GS; cynoBCMA-CHO-GS
T11 sequence (A0A2K5UD97 entry or part of it): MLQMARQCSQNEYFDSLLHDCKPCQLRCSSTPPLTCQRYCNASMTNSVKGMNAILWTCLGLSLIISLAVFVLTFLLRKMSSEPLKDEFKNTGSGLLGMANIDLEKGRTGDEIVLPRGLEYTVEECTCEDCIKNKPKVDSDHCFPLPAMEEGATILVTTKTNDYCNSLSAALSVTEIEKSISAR

[14] = biological target: T1, human BCMA expressed on the cell surface; assay: flow cytometry on hBCMA-CHO-GS cells
[15] = biological target: T1, human BCMA expressed on the cell surface; assay: flow cytometry on L363 cells
[16] = biological target: T1, human BCMA expressed on the cell surface; assay: flow cytometry on AMO1 cells
[17] = biological target: T1, human BCMA expressed on the cell surface; assay: flow cytometry on U266 cells

B1: anti-BCMA parent antibody ADI-34861 (antibody, V domains shown)
VH: QLQLQESGPGLVKPSETLSLTCTVSGGSISSSSYYWGWIRQPPGKGLEWIGSISYSGSTYYNPSLKSRVTISVDTSKNQFSLKLSSVTAADTAVYYCARDRGDTILDVWGQGTMVTVSS
VL: DIQMTQSPSSLSASVGDRVTITCRASQSISRYLNWYQQKPGKAPKLLIYAASSLQSGVPSRFSGSGSGTDFTLTISSLQPEDFATYYCQQKYFDITFGGGTKVEIK
notes: Tested as IgG (captured by anti-human Fc probe)
B1 was tested, and the MFI [1] was 1000, the Kd [2] was 2.11 nM and the Kd (Mouse BCMA-Fc) was 3.68 nM. The “FOB, Fold Over Background” value [3] was 4 fold, the Kd (Human BCMA-IHM) was 51.4 nM and the Kd (Human BCMA monomer) was 17.3 nM. For the same binder, the “FON, Fold Over Negative” value [4] was 6 fold and the MFI [4] was 1400.

B2: ADI-38497 PG antibody (antibody, V domains shown)
VH: B1 VH with S30V, G37T, Y55I, S56A, T104Q, G110S
VL: DIQMTQSPSSLSASVGDRVTITCRASQSISRYLNWYQQKPGKAPKLLIYAASSLQSGVPSRFSGSGSGTDFTLTISSLQPEDFATYYCQQKYFDITFGGGTKVEIKR
notes: Expressed in HEK293 cells
Binder B2 has a Kd [5] of 0.0301 nM, a koff [5] of 1.03e-05 s⁻¹ and a kon [5] of 340000 M⁻¹ s⁻¹. It also gave a Kd [6] of 0.061 nM, a koff [6] of 1.76e-05 s⁻¹ and a kon [6] of 288000 M⁻¹ s⁻¹. It also gave a Kd [7] of 83.1 nM, a koff [7] of 0.0831 s⁻¹ and a kon [7] of 1e+06 M⁻¹ s⁻¹. It also gave a Kd [8] of 1.77 nM, a koff [8] of 0.000872 s⁻¹ and a kon [8] of 492000 M⁻¹ s⁻¹. It also gave an EC50 [9] of 1.01 nM, an EC50 [10] of 1.18 nM and an EC50 [11] of about 1.71 nM. For the same binder, the EC50 [12] was 2.12 nM, the EC50 [13] was 1.69 nM and the EC50 [14] was 1.49 nM. It also gave an EC50 [15] of 5.11 nM, an EC50 [16] of 2.43 nM and an EC50 [17] of 1.79 nM.

B3: antibody ADI-38497 (antibody, V domains shown)
VH: B1 VH with S30V, G37T, Y55I, S56A, T104Q, G110S
VL: B1 VL
In the case of B3, the MFI [1] is reported as 2320, the Kd [2] is reported as 0.602 nM and the Kd (Mouse BCMA-Fc) is reported as 0.503 nM. For the same binder, the “FOB, Fold Over Background” value [3] was 8 fold, the Kd (Human BCMA-IHM) was 1.02 nM and the Kd (Human BCMA monomer) was 0.621 nM. For the same binder, the “FON, Fold Over Negative” value [4] was 26 fold and the MFI [4] was 5670.

B4: antibody ADI-38491 (antibody, V domains shown)
VH: B1 VH with S30V, G37T, Y55I, S56A
VL: B1 VL
Binder B4 has an MFI [1] of 996, a Kd [2] of 1.27 nM and a Kd (Mouse BCMA-Fc) of 3.04 nM. The “FOB, Fold Over Background” value [3] was 4 fold, the Kd (Human BCMA-IHM) was 2.62 nM and the Kd (Human BCMA monomer) was 1.02 nM. The “FON, Fold Over Negative” value [4] was 5 fold and the MFI [4] was 1100.

B5: anti-BCMA parent antibody ADI-34857 (antibody, V domains shown)
VH: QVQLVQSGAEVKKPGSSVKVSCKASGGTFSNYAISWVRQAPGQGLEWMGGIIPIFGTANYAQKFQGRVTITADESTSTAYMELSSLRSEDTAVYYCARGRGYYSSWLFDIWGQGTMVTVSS
VL: DIQMTQSPSSLSASVGDRVTITCQASQDITNYLNWYQQKPGKAPKLLIYDASNLETGVPSRFSGSGSGTDFTFTISSLQPEDIATYYCQQAFDLITFGGGTKVEIK
notes: as for B1
In the case of B5, the MFI [1] is reported as 877, the Kd [2] is reported as 1.47 nM and the “FOB, Fold Over Background” value [3] is reported as 3 fold. For the same binder, the Kd (Human BCMA-IHM) was 44 nM, the Kd (Human BCMA monomer) was 35.9 nM and the “FON, Fold Over Negative” value [4] was 10 fold. For the same binder, the MFI [4] was 2280.

B6: antibody ADI-38484 (antibody, V domains shown)
VH: QVQLVQSGAEVKKPGSSVKVSCKASGGTFSNDVISWVRQAPGQGLEWMGVIIPIFGIANYAQKFQGRVTITADESTSTAYMELSSLRSEDTAVYYCARGRGYYSSWLHDIWGQGTMVTVSS
VL: B5 VL
With B6 the MFI [1] was 2720, the Kd [2] was 1.07 nM and the Kd (Mouse BCMA-Fc) was 0.85 nM. The “FOB, Fold Over Background” value [3] was 11 fold, the Kd (Human BCMA-IHM) was 0.539 nM and the Kd (Human BCMA monomer) was 0.0794 nM. For the same binder, the “FON, Fold Over Negative” value [4] was 35 fold and the MFI [4] was 7720.

B7: antibody ADI-38481 (antibody, V domains shown)
VH: B6 VH with H108L
VL: B5 VL
For B7, the MFI [1] was 2620, the Kd [2] was 0.897 nM and the Kd (Mouse BCMA-Fc) was 2.44 nM. The “FOB, Fold Over Background” value [3] was 10 fold, the Kd (Human BCMA-IHM) was 0.496 nM and the Kd (Human BCMA monomer) was 0.1 nM. For the same binder, the “FON, Fold Over Negative” value [4] was 31 fold and the MFI [4] was 6660.

B8: ADI-38484 PG antibody (antibody, human IgG1, kappa, V domains shown)
VH: B6 VH
VL: DIQMTQSPSSLSASVGDRVTITCQASQDITNYLNWYQQKPGKAPKLLIYDASNLETGVPSRFSGSGSGTDFTFTISSLQPEDIATYYCQQAFDLITFGGGTKVEIKR
notes: Expressed in HEK293 cells
B8 showed an EC50 [9] of 1.95 nM, an EC50 [11] of about 1.55 nM and an EC50 [12] of 0.428 nM. It also gave an EC50 [15] of 0.934 nM, an EC50 [16] of 4.25 nM and an EC50 [17] of 2.79 nM.
